In the DeepSol protein solubility set:

Assay: soluble on expression in E. coli; label from the status in PepcDB or PDB records

Sequence | soluble on expression in E. coli
MSLNLPFRAMVSDLDGTLLTPEHLVGDLTIDTLRALEQKGVDIILATGRNHTDVSSILGKIGAERAVMITSNGARVRDLQGNLLYSNSLPEELVLELYKTPFDTSKVCMNSYQDEGWFTNKDIPAMRQFHKESGFDYNVVDFSKHHGRGTEKVFFIGKTPEDLVEVETYLRDKFGDVTTIVYSALACLEVMNKNVSKGDALKHLLESREYELKDCIAFGDGMNDVEMLSWAGKGCIMKDADIRLKMACPELEVIGSNKEESVARYLRTQFGLDYEGHHHHHH | soluble
MNNKNLALKAPLSGPVMPLNRVPDPVFSSGTLGEGIAIDPLNDCLHAPCAGLVSHLARTRHALSLRADNGAELLLHVGLDTVQLQGEGFEALVEEGARVIEGQPLLRFDLDRVARGSRSLITVMILTNGDGFQVRPLTTNPVEVGAPLLQLSPEKAEQRPANPAPGEGSAQRQVRGRARVAHHGGLHARPAALLRKTAQGFSSQAELHFAGQVASVDSLVGIMGLGVAEQDEVEVICRGEDSEAALGALLAALASATAGAPKDAPRAIAPGEPARPAAVAGTLAGVCASPGLASGPLARLGAISLPADDGRHRPEEQHLALDQALQRVRDDVQGSLQQARLGGDENEAAIFSAHLALLEDPGLLDAADMLIDQGVGAAHAWHRAIQAQCEILQALGNLLLAERANDLRDLEKRVLRVLLGDTAPLRVPAGAIVAAREITPSDLAPLVDAGAAGLCMAEGGATSHVAILARSKGLPCLVALGAGLLELEEGRQVVLDAGQGRLELSPDARRLEQVALQVAQREEQRRRQQADAQREALTRDGRRIEIGANVASPREAAEAFANGADGVGLLRTEFLFLERRAAPDEEEQRNAYQEVLDAMGQRKVIIRTIDVGGDKHLDYLPLPVEENPALGLRGIHLGQARPELLDQQLRALLRVEPLERCRILLPMVSEVDELRAIRRRLGELATQLGIERLPELGVMIEVPSAALLADQLAEHADFLSIGTNDLSQYALAMDRCHAGLADRIDALHPALLRLIAQTCAGAARHGRWVGVCGALASDPLATPVLVGLGVEELSVGPNLVGEIKTRVRQLDAAECRRHAQALLDLGSARAVRDACLQ | not soluble
AIAADGQMPFSCHYPSRLRRDPFRDSPLSSRLLDDGFGMDPFPDDLTASWPDWALPRLSSAWPGTLRSGMVPRGPTATARFGVPAEGRTPPPFPGEPWKVCVNVHSFKPEELMVKTKDGYVEVSGKHEEKQQEGGIVSKNFTKKIQLPAEVDPVTVFASLSPEGLLIIEAPQVPPYSTFGESSFNNELPQDSQEVTCT | soluble
MVLVVGSGAGGATLARELAIRGIDVTVIERGPCVKDSDAFLCYDEAPDVDILRTSCAGGSTLVAAGNAVRVLENTLKDYGVDITEDLHAIEAELRVRELPDTHTGRGTALIMDAAESLGLGVKKMPKFIDPDKCRPCGKCSFGCPRAAKWSARRFLDEAVEHGAVLIEETEAKNIIVRNGSVSGLRTSRGDFHDETVVLAAGAIETPRILMRAGIDAGNGLFMDTFVTVGGILEGVGFCDEVQMNALIELDGVILSPHFSTLLFPEDDRRNVLGIMVKIADERSGRVEADRIVKHHTVRDISLLSGGAAIAGSILSRAGVGAGTLRSTRPRGAHPGGTASLGEVVDENLETSIEGLFVADASVLPAAPGAPPILTIMALARRLARHIVSVLLEHHHHHH | not soluble
MSLRGNFFSFVRISGQSMSPNLVNNQIVLLEKKANVSRGTVIVSKTNNLQKQNTGVQDIALRVVALPGDKVNYKKGQLYVNGKKVNQSYISSQVKTETGMSIDTGWSINSLSLSKNWPKSQRNIKKVQKNSYFVLADNRIDPVDSRQYGLIKKRQIEGVVKVFFLGNKNKDEGHHHHHH | not soluble
MSLDIAQIALHQLIKRDEQTLDMVLRDSLLPTNAAVEDMMAELHRVYSAKSKAYGLFNEQSELADALRACRKGDEDFLSFSRAATGRLRDELAKYPFAEGGIVLFCQYRYLAVEYLLISVLNSCNSMRVNEQLDISTTHYLDINHADIIARIDLTEWETNPESTRYLTFLKGRVGRKVSDFFMDFLAASEGLDTKAQNRGLLKAVDEYCDEAQLDKNERQNYRQQVHSYCTEQLQSGEEIELASLSQELPPLGEKTFQQFSADQGYELEESFPADRGTLRQLTKFAGSGGGISLNFDALLLGERIFWDPATDTLTIKGTPPNLRDQLQRRTSGGKQLEHHHHHH | not soluble
MLKQVEIFTDGSCLGNPGPGGYGAILRYRGREKTFSAGYTRTTNNRMELMAAIVALEALKEHCEVILSTDSQYVRQGITQWIHNWKKRGWKTADKKPVKNVDLWQRLDAALGQHQIKWEWVKGHAGHPENERCNELARAAAMNPTLEDTGYQVEV | soluble
MSLHPADFIEKPPRFPVVDGHVDLVYDLMRRHPGIPFEQVADGQVTAQSLKKGGVWVLVAALYCADSHNGPASAAREMRRLHDYACRYLEWFALLRSPGEMAAALGGSGPPGIVFLVENADALLELDLDEVRRWGVRAVGLTHAGRNRLADGNGVTDPKGLTAAGKSLVRSIAGAGLILDVAHLAEPGFREVASLVTGPLISSHTGLRSFCDRPRNLSDPQVAEIARRGGVVGISAAPEMLVPGGTATLDDLFRQVDHVVQRHGPEAVGIGSDFGGFDDTAKGAEDHGGLPLLAERLLGAGYPAGAVGLIMGGNWCRIYGGIEGHHHHHH | soluble
MAQPQLYLPEPFKIAYRKVGQCRRFQQLKKKNGSFKRKGIERWHRAVSTNLLKQNVLVPKEESSSDSDMGFHESQQNQKSNLKTKVKTAFGRMLSYKYRSKPACASQEGSTDHKEALLSNTQSLLPRIVKEFSSPKLFTAKMRKLSENATIQLDVVEAETEEITQGNTLLRARRTTKRLSVTSLPSGLQKGPYSPKKRPHFPALKKKKRGMENILRKSDLTVGKLQMQVDDLIETVTDKSMKLLAQRHAELQQCEFLGDEILQSSKQFQRISKRTMRKYKLKNMTTKGPGDS | soluble
KDEIGVIGIDDAPFNKFDKEALIVGTYMRGNKLVDEISFKKIEKDGFDSTEKILKIVKDKHFTKINAIFLDGVTFGGFNIADIVKIYNETKIPVIAVMEKEPDLLKMKSALKKYFFDFPEKIEMLESFPKPEPFENIFIQCIGISFEDACKLIKKTRLRSKIPECLRISHLVGRGFLNME | not soluble
MTSGSLQFTVLRAVNPATDAQRESMLREPGFGKYHTDHMVSIDYAEGRGWHNARVIPYGPIELDPSAIVLHYAQEVFEGLKAYRWADGSIVSFRADANAARLRSSARRLAIPELPDAVFIESLRQLIAVDKAWVPGAGGEEALYLRPFIFATEPGLGVRPATQYRYLLIASPAGAYFKGGIAPVSVWVSTEYVRACPGGTGAAKFGGNYAASLLAQAEAAENGCDQVVWLDAVERRYIEEMGGMNIFFVLGSGGSARLVTPELSGSLLPGITRDSLLQLAIDAGFAVEERRIDIDEWQKKAAAGEITEVFACGTAAVITPVARVRHGASEFRIADGQPGEVTMALRDTLTGIQRGTFADTHGWMARLG | soluble
MVNTIGFDREKYIEMQSQHIRERREALGGKLYLEMGGKLFDDMHASRVLPGFTPDNKIAMLDRIKDEVEILVCINAKDLERHKIRADLGISYEEDVLRLVDVFRDRGFLVEHVVLTQLENDNRLALAFIERLQRLGIKVSRHRVIPGYPTDMDRIVSDEGFGLNEYAETTRDLVVVTAPGPGSGKLATCLSQVYHEHKRGVAAGYAKFETFPIWNLPLEHPVNLAYEAATVDLNDANVIDHFHLAAYGEQTVNYNRDVEAFPLLKTLLERLMGESPYQSPTDMGVNMAGNCISDDAACRHASEQEIIRRYFKALVEEARTGKDSTQSDRAAVVMAKAGIKASQRVVVEPARQVEERTSLPGCAIELVDGSIITGATSDLLGCSSSMLLNALKHLAGIDDAIHLLSPESIEPIQTLKTVHLGSSNPRLHTDEVLIALSVSAATDSNAQKALDQLKNLRGCDVHTTTILGSVDEGIFRNLGVLVTSDPKFQKNKLYQKR | not soluble
MGSTRWDAVNKFSVENWYPHLRKHTFKSHFITLNYNDIHYLMGNIPPDYDSSKLESIFNKILSEFNNKEVFMRLSTRSPKDSKFLFEEASTIMSKDFVYWNENDNKHQQLVSFVASMLKAMKIKSGRKIIETIAQSPRVYNDLLALVSSSNQSDCTTNVILREWHDIRPDHEFRVFVSRRHRKESIVTAISQYFHFLYFDKSPADCFNFLDEEDKKAVIKKFENYVLKSVDPDVAKFLNFSSEQDDDESSDCIREYIVDLALIPVSQYHGEITDENIIEIGANTYVMVVIELNPFAPAATGSGLFNWKNDLMMLWGKASCDYPVFKYRTTPREDLQSVSLLPSNYESVIKSALIKRLETSYSNSASQKERFFSSTKPVTESSGSALLDMVTKPLEHHHHHH | soluble
SLSDTLNSLQLGERPEGRTLLTASWVVGHKDGSHRLLKNGEVVFENGEILFVGHGFPGEVARRIDFGNALVSPGLIDLDALSDLDTTILGIDHHPGWAKGRVWPRSYVEAGPYEMYSAEELAFQKRFAFGQLLLNGITTAAPIASLFYRAWGETVAEFEAAADAAGELGLRVYLSPAFRSGGMVLEEPGRMFPVFDEERGFQGLKEAIAFIEKQSGRHGDLVRGMLAPDRVETSTLGLIERTDAAARELGCKFRLHMAQGVMEVDTVRKLHGSTAPVWLAKAGLLSERLIAPHATNATEEDLALYAENGVSIVHCPLVSSRGGSTLSSFSSCRKRGINIAMGTDTAPADMFMNLLVGLITCRINDGAPDQIRCADLFDAATLGGARALGRSDLGHLSSGARADIAVFDLDDAVMAPSVDPITTLVTGGSGKVTRAVFVDGRLSMRERQVAHIDMRRAREQAQAQFDRLIAKYPERSWANPPVSEIFPPSYQVEVAQHG | not soluble
MGSDKIHHHHHHAQKKVIIEDEEPNSVMFVSTNKAGDEIIRIMNETRLPRFHEPKAPRFVLTDRQGKFALGIGGYVRATAEYDFGGIVKDVDFYPALIPNKGSADRARNQFQMDISTSTLFLKLVGHTKRLGDFVVYTAANFRGDGKTFELQNAYATFLGFTLGYSYGNFMDLAALPPTIDFAGPNGSAFYRTTQLSYMCDKLKNWKFGVGVEMPSVDGTTNQYLTINTQRMPDFTASAQYNWNANSHLKLAAIVRSMTYSSSVDNKAHSKAGYGLQASTSFNVTPKWQVYGQVNYGKGIGQYLNDLSNLNVDIVPNPEKEGRMQTLPMLGWFAGLQYNISKNVFVSGTYSLSRLYSEHTYPSDEPDMYRKGQYLVANLFWNVTSNLQVGAEYLRGWRTDFSSNTRHANRMNALVQYSF | not soluble
MALFSPYALGATLYMPATRDDIVDVVFGEKIPELRSLVVCLEDAVALIDVDTALLNLRQVLTRIHDRGGRPANGPLLFVRPRDAAMARILNDWPLMAHVDGFVVPKLSLKSLTSWEEAVTNPALALMPTLETPEVFNPTAMVELGQALKASLHERIIALRIGGNDLMGCLGLRRNPAMTLYSTPMGYVIPMLAGVMGAQGFALTAPVFEQLATPDILEQELALDITNGLVGKTAIHPSQVNIIQNALRVSLEDMNSARMILNSVAPAVFKYNDAMCEPATHYKWATHIMERAKWHGVLPTPASIMDASIRLAEAVSLEHHHHHH | soluble
MKAIVTLNTTGAQLSVPASSRNLLETLEYHQVPVEYQCRSGYCGSCRMRLLKGEVCYLQQPLAFIQAGEILPCCCQPKGNIEIEF | not soluble
MAAPEAEVLSSAAVPDLEWYEKSEETHASQIELLETSSTQEPLNASEAFCPRDCMVPVVFPGPVSQEGCCQFTCELLKHIMYQRQQLPLPYEQLKHFYRKPSPQAEEMLKKKPRATTEVSSRKCQQALAELESVLSHLEDFFARTLVPRVLILLGGNALSPKEFYELDLSLLAPYSVDQSLSTAACLRRLFRAIFMADAFSELQAPPLMGTVVMAQGHRNCGEDWFRPKLNYRVPSRGHKLTVTLSCGRPSIRTTAWEDYIWFQAPVTFKGFRE | soluble
